Key:
[1] = biological target: T1, Recombinant mouse CTLA-4/human IgG1 chimera (R&D Systems) (mouse; human, UniProt P09793 36-162, limits assumed); test: ELISA; mouse CTLA-4/human IgG1 chimera coated at 1 or 5 µg/mL, HEK293 conditioned medium (130 ng/mL), anti-mouse IgG-HRP, OD 450 nm
T1 construct: Bought reagent, immobilised in 96-well plates; also called recombinant mCTLA-4/Fc; recombinant CTLA4 protein; not shown: human IgG1 portion (Fc) of the bought chimera
Protocol: (§1) Plasmid encoded anti-CTLA4 scFv bound to recombinant CTLA4 protein. Transfection-derived secreted anti-CTLA4 (scFv) were evaluated for their binding capacity to CTLA-4. Recombinant mouse CTLA-4/human IgG1 chimera (R&D Systems) were immobilized in 96-well plates (1 or 5 μg/mL, or […]) for 18 hr at room temperature. Wells were washed three times with 0.1% Tween in PBS and blocked with 1% BSA in PBS. Conditioned medium from HEK293 cells transfected with 9H10-scFv (168 ng/mL) or 9D9-scFv (130 ng/mL) was added to the wells, and incubated for 2 h at room temperature. Wells were washed three times, and anti-mouse IgG-horseradish peroxidase (Jackson ImmunoResearch, 0.2 μg/mL) were added and incubated for 1.5 hours at room temperature. Wells were again washed three times, developed with HRP Substrate Reagent (R&D Systems) and stopped with Stop Solution, 2N sulfuric acid (R&D Systems). Optical density of each well was measured at 450 nm.

[2] = biological target: T1, Recombinant mouse CTLA-4/human IgG1 …; test: ELISA; mouse CTLA-4/human IgG1 chimera coated at 1 or 5 µg/mL, HEK293 conditioned medium (168 ng/mL), anti-mouse IgG-HRP, OD 450 nm
Protocol: as §1

B1: Igκ-HA-9D9 VLC-Linker-9D9 VHC-Linker-mIgG1 Fc domain (anti-CTLA-4 scFv) (Fc fusion)
scFv: YPYDVPDYAGAQPARSDIVMTQTTLSLPVSLGDQASISCRSSQSIVHSNGNTYLEWYLQKPGQSPKLLIYKVSNRFSGVPDRFSGSGSGTDFTLKISRVEAEDLGVYYCFQGSHVPYTFGGGTKLEIKRADAAPTVSGSGGGSGGGSGGGSEAKLQESGPVLVKPGASVKMSCKASGYTFTDYYMNWVKQSHGKSLEWIGVINPYNGDTSYNQKFKGKATLTVDKSSSTAYMELNSLTSEDSAVYYCARYYGSWFAYWGQGTLITVSTAKTTPPSVYPLAPVDSSGSGGCKPCICTVPEVSSVFIFPPKPKDVLTITLTPKVTCVVVDISKDDPEVQFSWFVDDVEVHTAQTQPREEQFNSTFRSVSELPIMHQDWLNGKEFKCRVNSAAFPAPIEKTISKTKGRPKAPQVYTIPPPKEQMAKDKVSLTCMITDFFPEDITVEWQWNGQPAENYKNTQPIMDTDGSYFVYSKLNVQKSNWEAGNTFTCSVLHEGLHNHHTEKSLSHSPGK
notes: Secreted into the conditioned medium of transfected HEK293 cells (130 ng/mL) and used as such; also called 9D9-scFv; plasmid encoded anti-CTLA4 scFv
- binding result [1]: binds

B2: Igκ-HA-9H10 VLC-Linker-9H10 VHC-Linker-mIgG1 Fc domain (anti-CTLA-4 scFv) (Fc fusion)
scFv: YPYDVPDYAGAQPARSDIVMTQSPSSLAVSVGEKVTISCKSSQSLLYGSSHYLAWYQQKVGQSPKLLIYWASTRHTGIPDRFIGSGSGTDFTLSLSSVQAEDMADYFCQQYFSTPWTFGAGTRVEIKSGSGGGSGGGSGGGSQVQLLQSESELVKPGASVKLSCKTSGYTFTDYYIHWVKQKPGQGLEWIGLINPNNDGTNYNQKFQGKATLTADKSSSTAYMELNSLTFDDSVIYFCARASSRLRMARTTSDYYAMDYWGQGIQVTVSSVDSSGSGGCKPCICTVPEVSSVFIFPPKPKDVLTITLTPKVTCVVVDISKDDPEVQFSWFVDDVEVHTAQTQPREEQFNSTFRSVSELPIMHQDWLNGKEFKCRVNSAAFPAPIEKTISKTKGRPKAPQVYTIPPPKEQMAKDKVSLTCMITDFFPEDITVEWQWNGQPAENYKNTQPIMDTDGSYFVYSKLNVQKSNWEAGNTFTCSVLHEGLHNHHTEKSLSHSPGK
notes: Secreted into the conditioned medium of transfected HEK293 cells (168 ng/mL) and used as such; also called 9H10-scFv; plasmid encoded anti-CTLA4 scFv
- binding result [2]: binds
